Biological target: H4 tail (residues 1-30) of the acetyl reporter protein (H4ac indicator)
Assay: cell-based or functional assay

% of cells discriminated from auto fluorescence (FACS), H4ac indicator, 1 µM SAHA: 5%
% of cells discriminated from auto fluorescence (FACS), H4ac indicator, 2.5 µM SAHA: 20%
% of cells discriminated from auto fluorescence (FACS), H4ac indicator, 7.5 µM SAHA: 40%
% of cells discriminated from auto fluorescence (FACS), H4ac indicator, 10 µM SAHA: 45%
Sequence: TATA binding protein (TBP)-associated factor II (TAFII) bromodomain of the H4ac indicator

From US20170100354A1
